Measured values as given in paper PMC3950706, “SUMOylation of the polycomb group protein L3MBTL2 facilitates repression of its target genes” (Nucleic Acids Research, 2013).
Where no end group is shown, it is not given here. Me3 = tri-methylation (trimethyl-lysine); Me2 = di-methylation (dimethyl-lysine)

Legend:
Details in all cases: both partners purified
[1] = biological target: T1, recombinant full-length His-L3MBTL2 (human, UniProt Q969R5 1-705); assay: pull-down; histone peptides immobilised by a C-terminal cysteine on SulfoLink Coupling Resin; recombinant His-tagged proteins in 25 mM Tris-HCl pH 8, 150 mM NaCl, 2 mM EDTA, 0.5% NP 40, 1 h at 4°C (time course 5-60 min); bound protein detected by anti-His western blot; for SUMOylated L3MBTL2 the in vitro SUMOylation reaction was used
T1 construct: L3MBTL2 (Lethal(3) malignant brain tumour like 2), human, full length; also called 6xHis-L3MBTL2; His-L2; source: bacterially expressed, recombinant
T1 sequence (Q969R5 whole entry): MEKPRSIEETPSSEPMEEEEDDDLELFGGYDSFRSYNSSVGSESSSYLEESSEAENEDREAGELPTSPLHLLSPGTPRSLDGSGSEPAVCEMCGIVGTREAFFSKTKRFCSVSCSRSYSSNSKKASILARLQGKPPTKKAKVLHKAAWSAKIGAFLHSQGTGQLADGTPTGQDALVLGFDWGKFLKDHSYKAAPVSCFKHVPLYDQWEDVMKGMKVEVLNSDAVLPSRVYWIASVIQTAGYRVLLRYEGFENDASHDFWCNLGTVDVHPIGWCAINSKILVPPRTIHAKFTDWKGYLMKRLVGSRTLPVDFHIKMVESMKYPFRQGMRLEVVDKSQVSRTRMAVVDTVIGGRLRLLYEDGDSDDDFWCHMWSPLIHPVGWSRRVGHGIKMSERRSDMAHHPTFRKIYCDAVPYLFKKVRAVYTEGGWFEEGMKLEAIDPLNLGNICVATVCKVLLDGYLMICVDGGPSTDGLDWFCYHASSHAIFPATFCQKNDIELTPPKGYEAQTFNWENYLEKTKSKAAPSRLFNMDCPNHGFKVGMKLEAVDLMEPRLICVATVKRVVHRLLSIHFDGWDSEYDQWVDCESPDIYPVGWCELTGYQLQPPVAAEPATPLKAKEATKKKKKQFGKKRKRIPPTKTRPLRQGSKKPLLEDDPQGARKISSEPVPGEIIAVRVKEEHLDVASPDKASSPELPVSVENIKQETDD

[2] = biological target: T2, 3xFLAG-L3MBTL2 K675/700R mutant (human, UniProt Q969R5 1-705, K675/700R | K675/700R); assay: pull-down; histone peptides immobilised on resin; 3xFLAG-L3MBTL2 immunoprecipitated from N-ethylmaleimide-treated nuclear extracts of stably transfected HEK293 cells and then incubated with the peptides; bound protein detected by anti-FLAG western blot
T2 construct: L3MBTL2, human, with K675R and K700R; Associated proteins may be present after the immunoprecipitation; also called SUMOylation-defective L3MBTL2; K/R; source: HEK293, stably transfected, immunoprecipitated from N-ethylmaleimide-treated nuclear extracts
T2 sequence (Q969R5 other isoform, or with tags, fused parts or gaps K675/700R | K675/700R | K675/700R | K675/700R | mutant): as the sequence (Q969R5 whole entry) above, with K675R, K700R counted along it

[3] = biological target: T3, wild-type 3xFLAG-L3MBTL2 (human, UniProt Q969R5 1-705); assay: as above
T3 construct: L3MBTL2, human, wild type; The cellular wild-type protein is partly SUMOylated (SUMO2/3 at K675 and K700); Associated proteins may be present after the immunoprecipitation; also called FLAG-L3MBTL2 WT; 3xFLAG-L3MBTL2 WT; source: HEK293, stably transfected, immunoprecipitated from N-ethylmaleimide-treated nuclear extracts
T3 sequence (Q969R5 whole entry): as the sequence (Q969R5 whole entry) above

[4] = biological target: T4, 4xMBT-repeat domain of L3MBTL2 (human, UniProt Q969R5 170-619); assay: pull-down; histone peptides immobilised by a C-terminal cysteine on SulfoLink Coupling Resin; recombinant His-tagged proteins in 25 mM Tris-HCl pH 8, 150 mM NaCl, 2 mM EDTA, 0.5% NP 40, 1 h at 4°C (time course 5-60 min); bound protein detected by anti-His western blot; for SUMOylated L3MBTL2 the in vitro SUMOylation reaction was used
T4 construct: L3MBTL2, human, isolated 4xMBT-repeat domain, aa 170-619; also called His-4xMBT
T4 sequence (Q969R5 170-619): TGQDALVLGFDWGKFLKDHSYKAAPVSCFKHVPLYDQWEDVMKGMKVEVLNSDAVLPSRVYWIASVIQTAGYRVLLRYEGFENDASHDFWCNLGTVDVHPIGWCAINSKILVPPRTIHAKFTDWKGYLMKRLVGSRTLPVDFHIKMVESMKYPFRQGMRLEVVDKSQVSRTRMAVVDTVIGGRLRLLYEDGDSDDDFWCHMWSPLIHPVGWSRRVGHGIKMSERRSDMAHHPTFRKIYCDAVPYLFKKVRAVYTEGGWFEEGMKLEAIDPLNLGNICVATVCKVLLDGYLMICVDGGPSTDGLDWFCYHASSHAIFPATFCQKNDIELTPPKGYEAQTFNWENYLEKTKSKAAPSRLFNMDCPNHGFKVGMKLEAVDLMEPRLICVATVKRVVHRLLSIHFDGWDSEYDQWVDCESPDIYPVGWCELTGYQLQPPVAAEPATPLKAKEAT

Measured: binding result

B1: histone H3 peptide (residues 1-15) di-methylated at K9 (peptide)
peptide: ARTKQTARKSTGGKAC
modifications: dimethyl-lysine at K9
notes: histone H3, residues 1-15; added C-terminal cysteine, by which the peptide was coupled to SulfoLink resin; also called H3K9me2
binds: [1] | [2] | [3]

B2: unmethylated histone H3 peptide (residues 1-15) (peptide)
peptide: ARTKQTARKSTGGKAC
notes: histone H3, residues 1-15; added C-terminal cysteine, by which the peptide was coupled to SulfoLink resin
binds: [1] | [2] | [3]

B3: histone H4 peptide (residues 16-25) di-methylated at K20 (peptide)
peptide: KRHRK(Me2)VLRDNC
notes: histone H4, residues 16-25; added C-terminal cysteine, by which the peptide was coupled to SulfoLink resin; also called H4K20me2
binds: [1] | [4] | [2] | [3]

B4: histone H3 peptide (residues 1-15) mono-methylated at K9 (peptide)
peptide: ARTKQTARKSTGGKAC
modifications: monomethyl-lysine at K9
notes: histone H3, residues 1-15; added C-terminal cysteine, by which the peptide was coupled to SulfoLink resin; also called H3K9me1
binds: [1] | [2] | [3]

B5: histone H4 peptide (residues 16-25) mono-methylated at K20 (peptide)
peptide: KRHRK(Me)VLRDNC
notes: histone H4, residues 16-25; added C-terminal cysteine, by which the peptide was coupled to SulfoLink resin; also called H4K20me1
binds: [1] | [2] | [3]

B6: histone H4 peptide (residues 16-25) tri-methylated at K20 (peptide)
peptide: KRHRK(Me3)VLRDNC
notes: histone H4, residues 16-25; added C-terminal cysteine, by which the peptide was coupled to SulfoLink resin; also called H4K20me3
binds: [1] | [2] | [3]

B7: unmethylated histone H4 peptide (residues 16-25) (peptide)
peptide: KRHRKVLRDNC
notes: histone H4, residues 16-25; added C-terminal cysteine, by which the peptide was coupled to SulfoLink resin; also called H4K20
binds: [1] | [2] | [3]

B8: histone H3 peptide (residues 1-15) tri-methylated at K9 (peptide)
peptide: ARTKQTARKSTGGKAC
modifications: trimethyl-lysine at K9
notes: histone H3, residues 1-15; added C-terminal cysteine, by which the peptide was coupled to SulfoLink resin; also called H3K9me3
binds: [1] | [2] | [3]
